According to patent publication US20120039874 (published 2012):

T1: human AILIM-IgFc (human, UniProt Q9Y6W8)
T1 chain: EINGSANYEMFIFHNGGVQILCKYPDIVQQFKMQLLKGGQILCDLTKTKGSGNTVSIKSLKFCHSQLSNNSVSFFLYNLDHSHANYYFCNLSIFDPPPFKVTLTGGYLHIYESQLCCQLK


Biological target: T1, human AILIM-IgFc
Experiment: SPR

Kd	Binder
1100 pM	AII289 (JMab-138) (antibody, V domains shown) VH: EVQLVESGGGLVQPGGSLRLSCAASGFTFSSYDMHWVRQATGKGLEWVSAIGTAGDTYYPGSVKGRFTISRENAKNSLYLQMNSLRAGDTAVYYCVRDNRKVTHEHYYYYGMDVWGQGTTVTVSS VL: EIVLTQSPGTLSLSPGERATLSCRASQNIRSSYLAWYQQKPGQAPGLLIYGASSRATGIPDRFSGSGSGTDFTLTISRLEPEDFAVYYCQQFGSSPMCSFGQGTKLEIKR
770 pM	AII394 (JMab-139) (antibody, V domains shown) VH: EVQLVESGGGLVQPGGSLRLSCAASGFTFSSYDMHWVRQATGKGLEWVSAIGTAGDTYYPGSVKGRFTISRENAKNSLYLQMNSLRAGDTAVYYCVRDKRTVTHEHYYYYGMDVWGQGTTVTVSS VL: EIVLTQSPGTLSLSPGERATLSCRASQSISSSSLAWYQQKPGQAPGLLIFGASSRATGIPDRFSGSGSGTDFTLTISRLEPEDFAVYYCQQFGSSPMCSFGQGTKLEIKR
